Test results taken from paper PMC4516351, “Est16, a New Esterase Isolated from a Metagenomic Library of a Microbial Consortium Specializing in Diesel Oil Degradation” (PLoS ONE, 2015).

Assays:
Test in all cases: purified protein
Assay type in all cases: biochemical, uncultured bacterium
[1] = system: T1, CCCCCCCCCC(=O)Oc1ccc([N+](=O)[O-])cc1; settings: 50 mM Tris-HCl pH 8.0, 30°C, 0.3% (v/v) triton X-100, 15 nM enzyme
T1 construct: full-length ORF (906 bp, 302 residues), pET28a, N-terminal His6-tag and thrombin site, tag cutting not mentioned; E. coli BL21(DE3); IMAC and SEC

[2] = system: T2, CCCCCCCC(=O)Oc1ccc([N+](=O)[O-])cc1; settings: 50 mM Tris-HCl pH 8.0, 30°C, 0.3% (v/v) triton X-100, 15 nM enzyme
T2 construct: full-length ORF (906 bp, 302 residues), pET28a, N-terminal His6-tag and thrombin site, tag cutting not mentioned; E. coli BL21(DE3); IMAC and SEC

[3] = system: T3, CCCCCCCCCCCC(=O)Oc1ccc([N+](=O)[O-])cc1; settings: 50 mM Tris-HCl pH 8.0, 30°C, 0.3% (v/v) triton X-100, 50 nM enzyme
T3 construct: full-length ORF (906 bp, 302 residues), pET28a, N-terminal His6-tag and thrombin site, tag cutting not mentioned; E. coli BL21(DE3); IMAC and SEC

[4] = system: T4, CCCC(=O)Oc1ccc([N+](=O)[O-])cc1; settings: 50 mM Tris-HCl pH 8.0, 30°C, 0.3% (v/v) triton X-100, 15 nM enzyme
T4 construct: full-length ORF (906 bp, 302 residues), pET28a, N-terminal His6-tag and thrombin site, tag cutting not mentioned; E. coli BL21(DE3); IMAC and SEC

[5] = system: T5, CCCCC(=O)Oc1ccc([N+](=O)[O-])cc1; settings: 50 mM Tris-HCl pH 8.0, 30°C, 0.3% (v/v) triton X-100, 15 nM enzyme
T5 construct: full-length ORF (906 bp, 302 residues), pET28a, N-terminal His6-tag and thrombin site, tag cutting not mentioned; E. coli BL21(DE3); IMAC and SEC

Est16 (uncultured bacterium)
Km [1]: 1066.0 ± 116.9 µM
Vmax [1]: 82.7 µM/min
kcat [1]: 88.4 ± 4.81 s⁻¹
kcat/Km [1]: 83300 ± 10000 M⁻¹ s⁻¹
Km [2]: 628.6 ± 101.4 µM
Vmax [2]: 128 µM/min
kcat [2]: 137 ± 9.19 s⁻¹
kcat/Km [2]: 223000 ± 36700 M⁻¹ s⁻¹
Km [3]: 969.5 ± 42.5 µM
Vmax [3]: 22.9 µM/min
kcat [3]: 24.5 ± 0.535 s⁻¹
kcat/Km [3]: 25000 ± 1670 M⁻¹ s⁻¹
Km [4]: 225.1 ± 31.8 µM
Vmax [4]: 206 µM/min
kcat [4]: 220 ± 9.72 s⁻¹
kcat/Km [4]: 998000 ± 142000 M⁻¹ s⁻¹
Km [5]: 320.4 ± 32.5 µM
Vmax [5]: 197 µM/min
kcat [5]: 211 ± 7.26 s⁻¹
kcat/Km [5]: 665000 ± 66700 M⁻¹ s⁻¹
